In the supplement of paper PMC7877785:
± gives the uncertainty stated by the source.

Assay: self-splicing fitness, log relative to wild type (ln ratio); higher = more splicing; Tetrahymena group I intron in knt gene, E. coli kanamycin selection, DiMSum; sequences stand for … in CUCUCU…GGAGGGAAAAGUUAUCAGGCAUGCACCUGGUAGCUAGUCUUUAAACCAAUAGAUUGCAUCGGUUUAAAAGGCAAGACCGUCAAAUUGCGGGAAAGGGGUCAACAGCCGUUCAGUACCAAGUCUCAGGGGAAACUUUGAGAUGGCCUUGCAAAGGGUAUGGUAAUAAGCUGACGGACAUGGUCCUAACCACGCAGCCAAGUCCUAAGUCAACAGAUCUUCUGUUGAUAUGGAUGCAGUUCACAGACUAAAUGUCGGUCGGGGAAGAUGUAUUCUUCUCAUAAGAUAUAGUCGGACCUCUCCUUAAUGGGAGCUAGCGGAUGAAGUGAUGCAACACUGGAGCCGCUGGGAACUAAUUUGUAUGCGAAAGUAUAUUGAUUAGUUUUGGAGUACUCGUGGUCG
Method in brief: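 A randomised library covering all eight P1ex-region intron nucleotides was built with the intron in the knt kanamycin-resistance gene on pET-22b(+) and held in E. coli BL21(DE3). Cells were grown overnight at 37°C or 30°C on LB agar, with or without 25 μg/mL kanamycin, plus 100 μg/mL carbenicillin, 50 μM IPTG and 0.2% rhamnose, and pooled colonies were amplicon-sequenced on an Illumina HiSeq 2500. DiMSum fitness is the error-weighted combination of wild-type-normalised replicate fold changes, kanamycin versus none.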

| Sequence | self-splicing fitness (ln) (30 °C) | self-splicing fitness (ln) (37 °C) |
| --- | --- | --- |
| GAGCAGCAAUAUUACGGGAU | -3.27 ± 0.27 | -3.1 ± 0.23 |
| UCCGAGCAAUAUUACGCUGC | -2.96 ± 0.24 | -1.84 ± 0.31 |
| CUACAGCAAUAUUACGCUCU | -4.15 ± 0.25 | -2.74 ± 0.29 |
| GCCAAGCAAUAUUACGUUCA | -2.12 ± 0.11 | -0.947 ± 0.12 |
| GCAAAGCAAUAUUACGUGGG | -3.38 ± 0.15 | -3.07 ± 0.16 |
| CAUAAGCAAUAUUACGAUUU | -2.47 ± 0.13 | -2.19 ± 0.16 |
| AGAAAGCAAUAUUACGCCCA | 0.247 ± 0.12 | 0.167 ± 0.2 |
| GGGUAGCAAUAUUACGCGAC | -2.34 ± 0.2 | -1.62 ± 0.23 |
| UAAGAGCAAUAUUACGCGAU | -3.86 ± 0.26 | -2.56 ± 0.24 |
| AGCUAGCAAUAUUACGCCUG | -1.6 ± 0.13 | -1.55 ± 0.17 |
| UCGAAGCAAUAUUACGUUCU | -1.72 ± 0.091 | -1.53 ± 0.13 |
| CCGGAGCAAUAUUACGAGUA | -3.34 ± 0.27 | -2 ± 0.26 |
| CGACAGCAAUAUUACGAAAG | -1.22 ± 0.13 | -0.409 ± 0.17 |
| UACCAGCAAUAUUACGAAGC | -3.64 ± 0.25 | -2.17 ± 0.18 |
| AUUUAGCAAUAUUACGAAAC | -2.83 ± 0.22 | -2 ± 0.27 |
| GAAAAGCAAUAUUACGCUCU | -2.07 ± 0.13 | -1.27 ± 0.13 |
| UCUGAGCAAUAUUACGGAGU | -2.86 ± 0.19 | -2.57 ± 0.17 |
| CUGAAGCAAUAUUACGCUAC | -3.7 ± 0.47 |  |
| UCGUAGCAAUAUUACGAAUG | -2.01 ± 0.29 |  |
| GUCUAGCAAUAUUACGAACC | -1.25 ± 0.19 | -0.145 ± 0.28 |

| Sequence | self-splicing fitness (ln) (30 °C) | self-splicing fitness (ln) (37 °C) |
| --- | --- | --- |
| CGGUAGCAAUAUUACGUGUA | -3.31 ± 0.2 | -2.97 ± 0.28 |
| CCUCAGCAAUAUUACGACAC | -4.04 ± 0.28 | -2.5 ± 0.29 |
| UGAAAGCAAUAUUACGCGGU |  | -1.78 ± 0.36 |
| AUAAAGCAAUAUUACGCAUA | -1.34 ± 0.088 | -0.0324 ± 0.11 |
| UCGCAGCAAUAUUACGUGGU | -3.38 ± 0.13 | -3.24 ± 0.19 |
| GAACAGCAAUAUUACGGGAC | -2.66 ± 0.085 | -1.36 ± 0.085 |
| CCACAGCAAUAUUACGCAGA | -3.08 ± 0.17 | -2.89 ± 0.16 |
| UAGAAGCAAUAUUACGUAUG | -1.01 ± 0.07 | -1.14 ± 0.11 |
| CUGCAGCAAUAUUACGAUUG | -0.725 ± 0.06 | -0.488 ± 0.074 |
| AUCUAGCAAUAUUACGUCGU | -0.83 ± 0.1 | -1.21 ± 0.11 |
| CCACAGCAAUAUUACGCAUC | -3.23 ± 0.19 | -2.31 ± 0.2 |
| ACGUAGCAAUAUUACGUUAA | -3.53 ± 0.25 | -2.58 ± 0.2 |
| UCUUAGCAAUAUUACGGCGA | -0.253 ± 0.15 | -0.295 ± 0.13 |
| AGACAGCAAUAUUACGAUAC | -2.64 ± 0.27 | -1.79 ± 0.25 |
| GAGCAGCAAUAUUACGGCAG | -2.34 ± 0.16 | -1.69 ± 0.19 |
| AUAAAGCAAUAUUACGCGCC | -0.37 ± 0.13 | -0.473 ± 0.2 |
| UAUCAGCAAUAUUACGAAUA | -0.934 ± 0.18 | -0.486 ± 0.11 |
| CGAUAGCAAUAUUACGAUAC |  | -2.88 ± 0.41 |
| AUAUAGCAAUAUUACGUCGG | -3.37 ± 0.33 | -2.03 ± 0.28 |
